# T1: hsGLUT4 R416A (human, UniProt P14672 1-509)
# T1 sequence: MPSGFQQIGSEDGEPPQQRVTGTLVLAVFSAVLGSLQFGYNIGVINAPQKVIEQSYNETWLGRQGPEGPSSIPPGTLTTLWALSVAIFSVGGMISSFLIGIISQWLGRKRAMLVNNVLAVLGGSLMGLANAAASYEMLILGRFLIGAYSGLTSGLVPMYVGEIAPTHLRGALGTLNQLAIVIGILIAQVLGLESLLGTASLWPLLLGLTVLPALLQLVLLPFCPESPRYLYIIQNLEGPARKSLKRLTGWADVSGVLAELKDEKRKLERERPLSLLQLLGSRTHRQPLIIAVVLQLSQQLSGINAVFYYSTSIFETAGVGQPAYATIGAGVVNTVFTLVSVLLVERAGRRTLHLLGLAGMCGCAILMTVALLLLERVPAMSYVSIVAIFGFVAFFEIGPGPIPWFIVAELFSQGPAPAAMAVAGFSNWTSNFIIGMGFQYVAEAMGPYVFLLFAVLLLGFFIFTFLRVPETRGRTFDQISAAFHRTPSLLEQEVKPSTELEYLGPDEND
# T2: hsGLUT4 G356A (human, UniProt P14672 1-509)
# T2 sequence: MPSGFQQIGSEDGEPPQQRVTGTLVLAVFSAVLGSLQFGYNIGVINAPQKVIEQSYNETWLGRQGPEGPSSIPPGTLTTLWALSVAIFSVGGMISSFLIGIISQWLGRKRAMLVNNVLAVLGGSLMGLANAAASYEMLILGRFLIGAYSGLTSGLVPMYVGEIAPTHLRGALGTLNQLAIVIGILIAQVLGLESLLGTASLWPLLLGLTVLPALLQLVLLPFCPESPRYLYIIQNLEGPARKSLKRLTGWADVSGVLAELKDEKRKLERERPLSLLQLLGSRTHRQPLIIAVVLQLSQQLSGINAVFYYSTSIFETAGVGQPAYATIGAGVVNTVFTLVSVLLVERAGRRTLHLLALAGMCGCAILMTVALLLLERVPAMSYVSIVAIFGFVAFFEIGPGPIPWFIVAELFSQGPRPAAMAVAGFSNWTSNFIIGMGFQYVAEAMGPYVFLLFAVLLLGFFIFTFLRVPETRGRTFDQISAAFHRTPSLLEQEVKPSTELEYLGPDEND
# T3: hsGLUT4 L296A (human, UniProt P14672 1-509)
# T3 sequence: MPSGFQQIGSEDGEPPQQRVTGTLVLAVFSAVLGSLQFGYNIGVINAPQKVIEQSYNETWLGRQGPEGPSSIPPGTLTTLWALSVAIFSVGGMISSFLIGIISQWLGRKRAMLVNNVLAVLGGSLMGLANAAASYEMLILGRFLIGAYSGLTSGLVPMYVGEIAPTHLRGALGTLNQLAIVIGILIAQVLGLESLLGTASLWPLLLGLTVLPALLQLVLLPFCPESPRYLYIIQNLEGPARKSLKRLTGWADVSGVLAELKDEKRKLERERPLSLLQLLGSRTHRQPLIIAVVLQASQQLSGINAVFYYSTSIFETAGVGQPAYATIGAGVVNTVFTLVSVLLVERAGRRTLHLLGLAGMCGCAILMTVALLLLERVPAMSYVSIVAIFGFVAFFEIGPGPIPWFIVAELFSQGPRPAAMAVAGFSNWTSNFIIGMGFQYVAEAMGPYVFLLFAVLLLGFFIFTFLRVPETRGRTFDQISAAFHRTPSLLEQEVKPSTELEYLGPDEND
# T4: hsGLUT4 M112A (human, UniProt P14672 1-509)
# T4 sequence: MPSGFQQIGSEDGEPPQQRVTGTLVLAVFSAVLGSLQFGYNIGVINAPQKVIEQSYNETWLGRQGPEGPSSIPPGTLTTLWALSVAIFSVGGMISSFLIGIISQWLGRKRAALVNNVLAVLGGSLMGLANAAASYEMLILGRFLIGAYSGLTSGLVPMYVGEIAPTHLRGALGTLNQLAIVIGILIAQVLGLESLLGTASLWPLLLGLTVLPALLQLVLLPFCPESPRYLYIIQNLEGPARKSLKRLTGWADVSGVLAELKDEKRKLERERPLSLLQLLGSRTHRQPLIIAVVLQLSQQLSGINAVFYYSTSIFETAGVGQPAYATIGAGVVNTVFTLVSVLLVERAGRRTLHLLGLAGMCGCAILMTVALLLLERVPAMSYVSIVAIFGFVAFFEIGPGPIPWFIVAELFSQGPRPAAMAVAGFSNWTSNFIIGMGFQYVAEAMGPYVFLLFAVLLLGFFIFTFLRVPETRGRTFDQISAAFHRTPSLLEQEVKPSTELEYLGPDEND
# Assays:
# Assay in all cases: flow cytometry, alanine-scan library in HEK-293T, with cytochalasin B
# hsGLUT4 R416A = biological target: T1, hsGLUT4 R416A
# Procedure, shortened: (§1)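 HEK-293T cells expressing individual GLUT4 alanine mutants were stained 48 h post-transfection with anti-GLUT4 scFv MAbs (2 μg/ml), then biotinylated secondary and streptavidin-PerCP, and read by high-throughput flow cytometry. Where used, cytochalasin B (10 uM final) was given for 30 min before and during primary antibody staining.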
# hsGLUT4 G356A = biological target: T2, hsGLUT4 G356A
# Procedure, shortened: as §1
# hsGLUT4 L296A = biological target: T3, hsGLUT4 L296A
# Procedure, shortened: as §1
# hsGLUT4 M112A = biological target: T4, hsGLUT4 M112A
# Procedure, shortened: as §1
binder,measurement,setting,value
"AB102 (Fc fusion, also called MAb AB102; not shown: Fc fragment of human IgG1, cloned in frame with the scFv) scFv: ALTQPSSVSANLGGTVKITCSGGGSYGYGWYQQKSPGSAPVTVIYSNDQRPSDIPSRFSGSKSGSTATLTITGVRAEDEAIYYCGSTDSDYVGIFGAGTTLTVLGQSSRSSGGGGSSGGGGSAVTLDESGGGLQTPGGTLSLVCKASGFDFSSYATIWVRQAPGKGLEWVAGISGTGTGSSTGYAPAVKGRATISRDNGQSTVRLQLNNLRAEDTGSYFCAKSTGYGDSWIYPDSIDAWGHGTEVIVSS",% of binding to wild type GLUT4,hsGLUT4 R416A,70%
same,% of binding to wild type GLUT4,hsGLUT4 G356A,72%
same,% of binding to wild type GLUT4,hsGLUT4 L296A,69%
same,% of binding to wild type GLUT4,hsGLUT4 M112A,23%

# From patent US20210238276A1 (INTEGRAL MOLECULAR, published 2021)
